Test in all cases: Ki table, method not stated
Experiment [1] addresses T1, MCL-1 (UniProt Q07820 172-327, limits assumed).
T1 construct: also called Myeloid cell leukemia 1

In experiment [2] the target is BCL-XL (UniProt Q07817 1-209).
In experiment [3] the target is BCL-2 (UniProt P10415 1-217, limits assumed).

Positions of bridges follow the written chain, without caps; N, C: chain ends. Non-standard residues stand in square brackets, D forms with d. Bip = N[C@@H](Cc1ccc(-c2ccccc2)cc1)C(=O)O; R8 = C=CCCCCCC[C@@](C)(N)C(=O)O; S5 = C=CCCC[C@](C)(N)C(=O)O

T1 sequence (Q07820 172-327 limits assumed): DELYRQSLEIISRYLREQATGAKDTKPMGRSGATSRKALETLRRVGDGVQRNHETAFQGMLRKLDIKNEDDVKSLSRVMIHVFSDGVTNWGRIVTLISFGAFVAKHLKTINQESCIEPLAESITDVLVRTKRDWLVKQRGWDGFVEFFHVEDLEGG
BCL-2, sequence (P10415 1-217 limits assumed): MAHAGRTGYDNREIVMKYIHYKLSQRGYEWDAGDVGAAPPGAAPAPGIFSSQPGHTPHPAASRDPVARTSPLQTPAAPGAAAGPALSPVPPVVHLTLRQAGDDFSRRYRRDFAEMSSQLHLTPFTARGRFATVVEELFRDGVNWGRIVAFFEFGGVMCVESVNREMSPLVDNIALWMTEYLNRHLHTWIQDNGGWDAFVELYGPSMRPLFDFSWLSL
BCL-XL, sequence (Q07817 1-209): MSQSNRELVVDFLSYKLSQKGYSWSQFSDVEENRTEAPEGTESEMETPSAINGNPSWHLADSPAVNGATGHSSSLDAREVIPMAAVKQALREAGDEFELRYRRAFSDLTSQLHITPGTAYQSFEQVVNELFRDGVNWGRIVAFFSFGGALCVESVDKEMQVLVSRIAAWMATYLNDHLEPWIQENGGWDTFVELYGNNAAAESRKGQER

B1: SEQ ID NO: 1697 (peptide)
peptide: Ac-IWIAQA[Bip]R[R8]IGDAFN[S5]YYA-NH2
modifications: staple 9-16
SMILES: CC[C@H](C)[C@H](NC(C)=O)C(=O)N[C@@H](Cc1c[nH]c2ccccc12)C(=O)N[C@H](C(=O)N[C@@H](C)C(=O)N[C@@H](CCC(N)=O)C(=O)N[C@@H](C)C(=O)N[C@@H](Cc1ccc(-c2ccccc2)cc1)C(=O)N[C@@H](CCCNC(=N)N)C(=O)N[C@]1(C)CCCCCCC=CCCC[C@@](C)(C(=O)N[C@@H](Cc2ccc(O)cc2)C(=O)N[C@@H](Cc2ccc(O)cc2)C(=O)N[C@@H](C)C(N)=O)NC(=O)[C@H](CC(N)=O)NC(=O)[C@H](Cc2ccccc2)NC(=O)[C@H](C)NC(=O)[C@H](CC(=O)O)NC(=O)CNC(=O)[C@H]([C@@H](C)CC)NC1=O)[C@@H](C)CC
notes: also called Ac-IWIAQABipR$r8IGDAFN$YYA-NH2
For the molecule B1, the Ki in experiment [1] came to 83.7 nM; in experiment [2] it was 8 nM; in experiment [3] it was 280 nM.

B2: SEQ ID NO: 1716 (peptide)
peptide: Ac-EWIAAALR[R8]IGDAFN[S5]YYA-NH2
modifications: staple 9-16
SMILES: CC[C@H](C)[C@H](NC(=O)[C@H](Cc1c[nH]c2ccccc12)NC(=O)[C@H](CCC(=O)O)NC(C)=O)C(=O)N[C@@H](C)C(=O)N[C@@H](C)C(=O)N[C@@H](C)C(=O)N[C@@H](CC(C)C)C(=O)N[C@@H](CCCNC(=N)N)C(=O)N[C@]1(C)CCCCCCC=CCCC[C@@](C)(C(=O)N[C@@H](Cc2ccc(O)cc2)C(=O)N[C@@H](Cc2ccc(O)cc2)C(=O)N[C@@H](C)C(N)=O)NC(=O)[C@H](CC(N)=O)NC(=O)[C@H](Cc2ccccc2)NC(=O)[C@H](C)NC(=O)[C@H](CC(=O)O)NC(=O)CNC(=O)[C@H]([C@@H](C)CC)NC1=O
Regarding B2, the inhibitory constant (Ki) in experiment [1] was determined as 2.2 nM; in experiment [2], 72 nM; in experiment [3], 118 nM.

B3: SEQ ID NO: 1722 (peptide)
peptide: Ac-AWIAAALR[R8]IGDAFN[S5]YYA-NH2
modifications: staple 9-16
SMILES: CC[C@H](C)[C@H](NC(=O)[C@H](Cc1c[nH]c2ccccc12)NC(=O)[C@H](C)NC(C)=O)C(=O)N[C@@H](C)C(=O)N[C@@H](C)C(=O)N[C@@H](C)C(=O)N[C@@H](CC(C)C)C(=O)N[C@@H](CCCNC(=N)N)C(=O)N[C@]1(C)CCCCCCC=CCCC[C@@](C)(C(=O)N[C@@H](Cc2ccc(O)cc2)C(=O)N[C@@H](Cc2ccc(O)cc2)C(=O)N[C@@H](C)C(N)=O)NC(=O)[C@H](CC(N)=O)NC(=O)[C@H](Cc2ccccc2)NC(=O)[C@H](C)NC(=O)[C@H](CC(=O)O)NC(=O)CNC(=O)[C@H]([C@@H](C)CC)NC1=O
With B3, the Ki came out at 3.8 nM in experiment [1], 32.6 nM in experiment [2] and 63.9 nM in experiment [3].

B4: SEQ ID NO: 1721 (peptide)
peptide: Ac-QWIAAALR[R8]IGDAFN[S5]YYA-NH2
modifications: staple 9-16
SMILES: CC[C@H](C)[C@H](NC(=O)[C@H](Cc1c[nH]c2ccccc12)NC(=O)[C@H](CCC(N)=O)NC(C)=O)C(=O)N[C@@H](C)C(=O)N[C@@H](C)C(=O)N[C@@H](C)C(=O)N[C@@H](CC(C)C)C(=O)N[C@@H](CCCNC(=N)N)C(=O)N[C@]1(C)CCCCCCC=CCCC[C@@](C)(C(=O)N[C@@H](Cc2ccc(O)cc2)C(=O)N[C@@H](Cc2ccc(O)cc2)C(=O)N[C@@H](C)C(N)=O)NC(=O)[C@H](CC(N)=O)NC(=O)[C@H](Cc2ccccc2)NC(=O)[C@H](C)NC(=O)[C@H](CC(=O)O)NC(=O)CNC(=O)[C@H]([C@@H](C)CC)NC1=O
Regarding B4, the inhibition constant Ki came out at 4.8 nM in experiment [1], 35.9 nM in experiment [2] and 64.9 nM in experiment [3].

B5: SEQ ID NO: 1725 (peptide)
peptide: Ac-IDIAAALR[R8]IGDAFN[S5]YYA-NH2
modifications: staple 9-16
SMILES: CC[C@H](C)[C@H](NC(C)=O)C(=O)N[C@@H](CC(=O)O)C(=O)N[C@H](C(=O)N[C@@H](C)C(=O)N[C@@H](C)C(=O)N[C@@H](C)C(=O)N[C@@H](CC(C)C)C(=O)N[C@@H](CCCNC(=N)N)C(=O)N[C@]1(C)CCCCCCC=CCCC[C@@](C)(C(=O)N[C@@H](Cc2ccc(O)cc2)C(=O)N[C@@H](Cc2ccc(O)cc2)C(=O)N[C@@H](C)C(N)=O)NC(=O)[C@H](CC(N)=O)NC(=O)[C@H](Cc2ccccc2)NC(=O)[C@H](C)NC(=O)[C@H](CC(=O)O)NC(=O)CNC(=O)[C@H]([C@@H](C)CC)NC1=O)[C@@H](C)CC
Regarding B5, the figures for the inhibition constant Ki in experiment [1], in experiment [2] and in experiment [3] were 3 nM, 36.3 nM and 41.1 nM, respectively.

B6: SEQ ID NO: 1720 (peptide)
peptide: Ac-SWIAAALR[R8]IGDAFN[S5]YYA-NH2
modifications: staple 9-16
SMILES: CC[C@H](C)[C@H](NC(=O)[C@H](Cc1c[nH]c2ccccc12)NC(=O)[C@H](CO)NC(C)=O)C(=O)N[C@@H](C)C(=O)N[C@@H](C)C(=O)N[C@@H](C)C(=O)N[C@@H](CC(C)C)C(=O)N[C@@H](CCCNC(=N)N)C(=O)N[C@]1(C)CCCCCCC=CCCC[C@@](C)(C(=O)N[C@@H](Cc2ccc(O)cc2)C(=O)N[C@@H](Cc2ccc(O)cc2)C(=O)N[C@@H](C)C(N)=O)NC(=O)[C@H](CC(N)=O)NC(=O)[C@H](Cc2ccccc2)NC(=O)[C@H](C)NC(=O)[C@H](CC(=O)O)NC(=O)CNC(=O)[C@H]([C@@H](C)CC)NC1=O
Turning to B6, the inhibitory constant (Ki) was found to be 3.9 nM in experiment [1], 33.4 nM in experiment [2] and 53.2 nM in experiment [3].

B7: SEQ ID NO: 1717 (peptide)
peptide: Ac-RWIAAALR[R8]IGDAFN[S5]YYA-NH2
modifications: staple 9-16
SMILES: CC[C@H](C)[C@H](NC(=O)[C@H](Cc1c[nH]c2ccccc12)NC(=O)[C@H](CCCNC(=N)N)NC(C)=O)C(=O)N[C@@H](C)C(=O)N[C@@H](C)C(=O)N[C@@H](C)C(=O)N[C@@H](CC(C)C)C(=O)N[C@@H](CCCNC(=N)N)C(=O)N[C@]1(C)CCCCCCC=CCCC[C@@](C)(C(=O)N[C@@H](Cc2ccc(O)cc2)C(=O)N[C@@H](Cc2ccc(O)cc2)C(=O)N[C@@H](C)C(N)=O)NC(=O)[C@H](CC(N)=O)NC(=O)[C@H](Cc2ccccc2)NC(=O)[C@H](C)NC(=O)[C@H](CC(=O)O)NC(=O)CNC(=O)[C@H]([C@@H](C)CC)NC1=O
On to B7, for which the figures for the inhibitory constant (Ki) in experiment [1], in experiment [2] and in experiment [3] were 4.5 nM, 32.8 nM and 47.8 nM, respectively.

B8: SEQ ID NO: 1719 (peptide)
peptide: Ac-HWIAAALR[R8]IGDAFN[S5]YYA-NH2
modifications: staple 9-16
SMILES: CC[C@H](C)[C@H](NC(=O)[C@H](Cc1c[nH]c2ccccc12)NC(=O)[C@H](Cc1c[nH]cn1)NC(C)=O)C(=O)N[C@@H](C)C(=O)N[C@@H](C)C(=O)N[C@@H](C)C(=O)N[C@@H](CC(C)C)C(=O)N[C@@H](CCCNC(=N)N)C(=O)N[C@]1(C)CCCCCCC=CCCC[C@@](C)(C(=O)N[C@@H](Cc2ccc(O)cc2)C(=O)N[C@@H](Cc2ccc(O)cc2)C(=O)N[C@@H](C)C(N)=O)NC(=O)[C@H](CC(N)=O)NC(=O)[C@H](Cc2ccccc2)NC(=O)[C@H](C)NC(=O)[C@H](CC(=O)O)NC(=O)CNC(=O)[C@H]([C@@H](C)CC)NC1=O
Consider B8, for which the figures for the Ki in experiment [1], in experiment [2] and in experiment [3] were 3.6 nM, 25.2 nM and 52 nM, respectively.

B9: SEQ ID NO: 1726 (peptide)
peptide: Ac-IRIAAALR[R8]IGDAFN[S5]YYA-NH2
modifications: staple 9-16
SMILES: CC[C@H](C)[C@H](NC(C)=O)C(=O)N[C@@H](CCCNC(=N)N)C(=O)N[C@H](C(=O)N[C@@H](C)C(=O)N[C@@H](C)C(=O)N[C@@H](C)C(=O)N[C@@H](CC(C)C)C(=O)N[C@@H](CCCNC(=N)N)C(=O)N[C@]1(C)CCCCCCC=CCCC[C@@](C)(C(=O)N[C@@H](Cc2ccc(O)cc2)C(=O)N[C@@H](Cc2ccc(O)cc2)C(=O)N[C@@H](C)C(N)=O)NC(=O)[C@H](CC(N)=O)NC(=O)[C@H](Cc2ccccc2)NC(=O)[C@H](C)NC(=O)[C@H](CC(=O)O)NC(=O)CNC(=O)[C@H]([C@@H](C)CC)NC1=O)[C@@H](C)CC
In the case of B9, the inhibition constant (Ki) in experiment [1] came to 9.8 nM; in experiment [2] it was 20.5 nM; in experiment [3], 39.1 nM.

B10: SEQ ID NO: 1718 (peptide)
peptide: Ac-KWIAAALR[R8]IGDAFN[S5]YYA-NH2
modifications: staple 9-16
SMILES: CC[C@H](C)[C@H](NC(=O)[C@H](Cc1c[nH]c2ccccc12)NC(=O)[C@H](CCCCN)NC(C)=O)C(=O)N[C@@H](C)C(=O)N[C@@H](C)C(=O)N[C@@H](C)C(=O)N[C@@H](CC(C)C)C(=O)N[C@@H](CCCNC(=N)N)C(=O)N[C@]1(C)CCCCCCC=CCCC[C@@](C)(C(=O)N[C@@H](Cc2ccc(O)cc2)C(=O)N[C@@H](Cc2ccc(O)cc2)C(=O)N[C@@H](C)C(N)=O)NC(=O)[C@H](CC(N)=O)NC(=O)[C@H](Cc2ccccc2)NC(=O)[C@H](C)NC(=O)[C@H](CC(=O)O)NC(=O)CNC(=O)[C@H]([C@@H](C)CC)NC1=O
For B10, the figures for the Ki in experiment [1], in experiment [2] and in experiment [3] were 3.9 nM, 27.2 nM and 49.7 nM, respectively.

B11: SEQ ID NO: 1724 (peptide)
peptide: Ac-FWIAAALR[R8]IGDAFN[S5]YYA-NH2
modifications: staple 9-16
SMILES: CC[C@H](C)[C@H](NC(=O)[C@H](Cc1c[nH]c2ccccc12)NC(=O)[C@H](Cc1ccccc1)NC(C)=O)C(=O)N[C@@H](C)C(=O)N[C@@H](C)C(=O)N[C@@H](C)C(=O)N[C@@H](CC(C)C)C(=O)N[C@@H](CCCNC(=N)N)C(=O)N[C@]1(C)CCCCCCC=CCCC[C@@](C)(C(=O)N[C@@H](Cc2ccc(O)cc2)C(=O)N[C@@H](Cc2ccc(O)cc2)C(=O)N[C@@H](C)C(N)=O)NC(=O)[C@H](CC(N)=O)NC(=O)[C@H](Cc2ccccc2)NC(=O)[C@H](C)NC(=O)[C@H](CC(=O)O)NC(=O)CNC(=O)[C@H]([C@@H](C)CC)NC1=O
For B11, the Ki was 6.2 nM in experiment [1], 33.9 nM in experiment [2] and 76.7 nM in experiment [3].

In general, Ki refers to a dissociation constant, usually derived from enzyme kinetics or from competition with a known ligand.

Source of the values: US20180273587A1 (AILERON THERAPEUTICS, published 2018).
